Measured values: article doi:10.1101/2020.06.12.148478 (bioRxiv, 2020)
One block for each molecule: values may come before it.

Tests used:
[1] = target: TacA (Caulobacter crescentus); test: SEC-MALS
MST = target: the molecule itself; test: MST
SpbR [2] = target: T1, SpbR (Caulobacter crescentus, UniProt Q9A5X4 1-377); test: SEC-MALS
T1 sequence (looked up): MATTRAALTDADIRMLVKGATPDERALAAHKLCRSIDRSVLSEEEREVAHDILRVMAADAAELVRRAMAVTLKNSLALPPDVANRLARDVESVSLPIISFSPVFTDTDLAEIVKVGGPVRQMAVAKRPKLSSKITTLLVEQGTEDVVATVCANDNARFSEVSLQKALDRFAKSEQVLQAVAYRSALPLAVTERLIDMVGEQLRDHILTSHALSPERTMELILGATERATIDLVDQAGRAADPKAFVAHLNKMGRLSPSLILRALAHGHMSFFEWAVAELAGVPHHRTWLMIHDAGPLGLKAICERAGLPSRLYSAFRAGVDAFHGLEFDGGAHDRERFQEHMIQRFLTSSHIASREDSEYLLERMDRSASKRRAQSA

SEC-MALS = target: the molecule itself; test: SEC-MALS
[3] = target: PopA (Caulobacter crescentus); test: SEC-MALS
SpbR [4] = target: T1, SpbR; test: ITC

stoichiometry N [1]: 2 subunits
Molecule: TacA (natural protein)

stoichiometry N (SpbR [2]): 1 RcdA per SpbR
stoichiometry N (RcdA per PopA) [3]: 1
stoichiometry N (RcdA per TacA chain (1 RcdA : 2 TacA)) [1]: 0.5
Kd (SpbR [4]): 3.3 µM
B1: RcdA (natural protein, Caulobacter crescentus, UniProt A0A0H3CD07 1-169, looked up)
chain: MTEVNAFADTPWRAGVIQDFARSELFDRTFEEGMQLVEETAAYLDGAGRHDSKVLSRNAALGYATESMRLTTRLMQVASWLLVQRAVREGEMPPEAACAEAYRLAEEAPADGPAVEELPFGLMNLLQRSERLYERVRHLDRRMYVESPNEEAPRPVQNQLDRLTAAFGG
modifications: Fluorescin-5-Maleimide on cysteine in the fluorescence polarisation and MST experiments only; unlabelled elsewhere
Kd (MST): 2.9 µM
stoichiometry N (SEC-MALS): 2 subunits
